A short description of assay [1]: Heme reconstitution of apo wt and mutated RbMPOs (tryptophan fluorescence quenching). Type of assay: binding. Conditions: 1 μM enzyme; for k2: heme reconstitution of apo enzyme, 50 mM sodium phosphate pH7.5, 25° C. How it is done: Sample dilutions were performed in a 50 mM pH7.5 sodium phosphate buffer.
Assay [2] can be described thus: Steady-state kinetics by stopped-flow, NaSCN (hypothiocyanate formation, 240 nm). Type of assay: biochemical. Conditions: for substrate specificity: from steady-state NaSCN, NaBr and NaCl ranges. How it is done:
(§1) pH- and temperature-dependent studies were carried out for each substrate.
(§2) These temperatures were reached by using a stopped-flow coupled to a cryostat.
(§3) For temperature and pH measurements, RbMPO was set at the same concentration as in the determination of steady state kinetics parameters.

Assay [3] is described as follows: Steady-state kinetics by stopped-flow, NaBr (Tau-NHBr formation, 289 nm). Conditions: 300 nM enzyme, 79 μM H2O2. Type of assay: biochemical. The protocol: as §1, §2, §3

Entries after “also recorded” stand apart in the source; their conditions may differ.

B1: H407A: RbMPO with active site mutation H407A, generated by site-directed mutagenesis (protein)
chain: MLFWSKRTRKHPGRKRRRLRSEQLESRQLLAADFGGYRHNIYDAEDVNDDGRVSAIDALLVINAMTSETSRDENVFTDVNGDGRRSALDALRVINRIERGDVFPIDTSGDEDLNTLLPEMPSEVRSIDGSGNNPNDHLWGSVGQRLIRMAPAAYGDGISTLAGANRPSAREVSNVLSAMNTSQVLNDRGLSAFVYVWGQFIDHDLGLTESDEHGEAIDISVPEGDLWFDPMGSGEAVIPMTRTPIADGTGTSVGNPAQQFNQITAFIDGSMVYGSDAATAERLRTFAGGRLAISDNGLLPMDESGMVIAGDVRASENVGLTAIQTLFVREHNRLADEIFAADPEATDEEIYQRARLVVASLIQSITYNEFLPALLGQRAMDSYRGYDASVNPGIANEFSTAAFRLGASTLRDEVGFMSNDGRESKDEMELKDAFFHASMLEETGIDSLLKFDASVQAQEIDLAVVDSLRNFLFGPPGAGGLDLVAMNIQRGRDHGLSDYNTTRQAYGLDRVETFDQITGDVELQQKLASLYGTVDNIDLWVGLMAEDHQHDASVGELTGLIIADQFQRTRDGDRFFYKNVLTDSEVESIERSTLADLIERNTSVDGLQENVFFMQVELRGRVILASSIPPNTMPSEVREEEIRGVSGMAIELIDASGKLVDSTVSDQHGNYRFRALSETGDYQVRLSESGEAMDVLVAHGAERIRGLDFIVLA
In turn, B1 had a k2 in assay [1] of 1320 ± 18.9 M⁻¹ s⁻¹. Further, the “activity in presence of SCN^− (NaSCN range), in words” value in assay [2] (300 nM enzyme, 79 μM H2O2) is reported as “not active; also recorded: scatter plot”. Moreover, the substrate specificity entry in assay [2] is “greater specificity for Br^− than for SCN^−”.

B2: D202A, E316A: double mutant of RbMPO with active site mutations D202A and E316A (protein)
chain: MLFWSKRTRKHPGRKRRRLRSEQLESRQLLAADFGGYRHNIYDAEDVNDDGRVSAIDALLVINAMTSETSRDENVFTDVNGDGRRSALDALRVINRIERGDVFPIDTSGDEDLNTLLPEMPSEVRSIDGSGNNPNDHLWGSVGQRLIRMAPAAYGDGISTLAGANRPSAREVSNVLSAMNTSQVLNDRGLSAFVYVWGQFIAHDLGLTESDEHGEAIDISVPEGDLWFDPMGSGEAVIPMTRTPIADGTGTSVGNPAQQFNQITAFIDGSMVYGSDAATAERLRTFAGGRLAISDNGLLPMDESGMVIAGDVRASANVGLTAIQTLFVREHNRLADEIFAADPEATDEEIYQRARLVVASLIQSITYNEFLPALLGQRAMDSYRGYDASVNPGIANEFSTAAFRLGHSTLRDEVGFMSNDGRESKDEMELKDAFFHASMLEETGIDSLLKFDASVQAQEIDLAVVDSLRNFLFGPPGAGGLDLVAMNIQRGRDHGLSDYNTTRQAYGLDRVETFDQITGDVELQQKLASLYGTVDNIDLWVGLMAEDHQHDASVGELTGLIIADQFQRTRDGDRFFYKNVLTDSEVESIERSTLADLIERNTSVDGLQENVFFMQVELRGRVILASSIPPNTMPSEVREEEIRGVSGMAIELIDASGKLVDSTVSDQHGNYRFRALSETGDYQVRLSESGEAMDVLVAHGAERIRGLDFIVLA
Broadly, the Kd is a measure of binding affinity in units of concentration. The low end stands for a tighter complex, the high end for a looser complex. As for B2, binding in assay [1] (heme reconstitution, saturation of active site by heme, pH7.5, 25° C.) was characterised by a dissociation constant (Kd) of 10.9 µM. Moreover, in assay [2], the substrate specificity result is “active only for SCN^−”. For the same molecule, the “activity with Br^− (NaBr range), in words” value in assay [3] is “lack of RbMPO activity”.

B3: Q199A: RbMPO with active site mutation Q199A, generated by site-directed mutagenesis (protein)
chain: MLFWSKRTRKHPGRKRRRLRSEQLESRQLLAADFGGYRHNIYDAEDVNDDGRVSAIDALLVINAMTSETSRDENVFTDVNGDGRRSALDALRVINRIERGDVFPIDTSGDEDLNTLLPEMPSEVRSIDGSGNNPNDHLWGSVGQRLIRMAPAAYGDGISTLAGANRPSAREVSNVLSAMNTSQVLNDRGLSAFVYVWGAFIDHDLGLTESDEHGEAIDISVPEGDLWFDPMGSGEAVIPMTRTPIADGTGTSVGNPAQQFNQITAFIDGSMVYGSDAATAERLRTFAGGRLAISDNGLLPMDESGMVIAGDVRASENVGLTAIQTLFVREHNRLADEIFAADPEATDEEIYQRARLVVASLIQSITYNEFLPALLGQRAMDSYRGYDASVNPGIANEFSTAAFRLGHSTLRDEVGFMSNDGRESKDEMELKDAFFHASMLEETGIDSLLKFDASVQAQEIDLAVVDSLRNFLFGPPGAGGLDLVAMNIQRGRDHGLSDYNTTRQAYGLDRVETFDQITGDVELQQKLASLYGTVDNIDLWVGLMAEDHQHDASVGELTGLIIADQFQRTRDGDRFFYKNVLTDSEVESIERSTLADLIERNTSVDGLQENVFFMQVELRGRVILASSIPPNTMPSEVREEEIRGVSGMAIELIDASGKLVDSTVSDQHGNYRFRALSETGDYQVRLSESGEAMDVLVAHGAERIRGLDFIVLA
In assay [1], B3 had a k2 of 1720 ± 133 M⁻¹ s⁻¹. The “activity in presence of SCN^− (NaSCN range), in words” value in assay [2] (300 nM enzyme, 79 μM H2O2) was “not active”. In addition, the substrate specificity entry in assay [2] is reported as “only active for Br”. For the same molecule, the “kss/[Br^−]” value in assay [3] (NaBr range, linear (k2)) was determined as 78.19 ± 22.00 M⁻¹ s⁻¹.

B4: N317M: RbMPO with active site mutation N317M, generated by site-directed mutagenesis (protein)
chain: MLFWSKRTRKHPGRKRRRLRSEQLESRQLLAADFGGYRHNIYDAEDVNDDGRVSAIDALLVINAMTSETSRDENVFTDVNGDGRRSALDALRVINRIERGDVFPIDTSGDEDLNTLLPEMPSEVRSIDGSGNNPNDHLWGSVGQRLIRMAPAAYGDGISTLAGANRPSAREVSNVLSAMNTSQVLNDRGLSAFVYVWGQFIDHDLGLTESDEHGEAIDISVPEGDLWFDPMGSGEAVIPMTRTPIADGTGTSVGNPAQQFNQITAFIDGSMVYGSDAATAERLRTFAGGRLAISDNGLLPMDESGMVIAGDVRASEMVGLTAIQTLFVREHNRLADEIFAADPEATDEEIYQRARLVVASLIQSITYNEFLPALLGQRAMDSYRGYDASVNPGIANEFSTAAFRLGHSTLRDEVGFMSNDGRESKDEMELKDAFFHASMLEETGIDSLLKFDASVQAQEIDLAVVDSLRNFLFGPPGAGGLDLVAMNIQRGRDHGLSDYNTTRQAYGLDRVETFDQITGDVELQQKLASLYGTVDNIDLWVGLMAEDHQHDASVGELTGLIIADQFQRTRDGDRFFYKNVLTDSEVESIERSTLADLIERNTSVDGLQENVFFMQVELRGRVILASSIPPNTMPSEVREEEIRGVSGMAIELIDASGKLVDSTVSDQHGNYRFRALSETGDYQVRLSESGEAMDVLVAHGAERIRGLDFIVLA
In the case of B4, the k2 in assay [2] (NaSCN range, linear increase of kss, 300 nM enzyme, 79 μM H2O2) was determined as 1074 ± 53 M⁻¹ s⁻¹. For the same molecule, the substrate specificity result in assay [2] is reported as “higher specificity for SCN^− than Br^−”.

B5: D202A: RbMPO with active site mutation D202A, generated by site-directed mutagenesis (protein)
chain: MLFWSKRTRKHPGRKRRRLRSEQLESRQLLAADFGGYRHNIYDAEDVNDDGRVSAIDALLVINAMTSETSRDENVFTDVNGDGRRSALDALRVINRIERGDVFPIDTSGDEDLNTLLPEMPSEVRSIDGSGNNPNDHLWGSVGQRLIRMAPAAYGDGISTLAGANRPSAREVSNVLSAMNTSQVLNDRGLSAFVYVWGQFIAHDLGLTESDEHGEAIDISVPEGDLWFDPMGSGEAVIPMTRTPIADGTGTSVGNPAQQFNQITAFIDGSMVYGSDAATAERLRTFAGGRLAISDNGLLPMDESGMVIAGDVRASENVGLTAIQTLFVREHNRLADEIFAADPEATDEEIYQRARLVVASLIQSITYNEFLPALLGQRAMDSYRGYDASVNPGIANEFSTAAFRLGHSTLRDEVGFMSNDGRESKDEMELKDAFFHASMLEETGIDSLLKFDASVQAQEIDLAVVDSLRNFLFGPPGAGGLDLVAMNIQRGRDHGLSDYNTTRQAYGLDRVETFDQITGDVELQQKLASLYGTVDNIDLWVGLMAEDHQHDASVGELTGLIIADQFQRTRDGDRFFYKNVLTDSEVESIERSTLADLIERNTSVDGLQENVFFMQVELRGRVILASSIPPNTMPSEVREEEIRGVSGMAIELIDASGKLVDSTVSDQHGNYRFRALSETGDYQVRLSESGEAMDVLVAHGAERIRGLDFIVLA
As to B5, the substrate specificity result in assay [2] was “higher specificity for SCN^− than Br^−”.

The values are drawn from patent US20250297232A1, “BACTERIAL MYELOPEROXIDASE-CATALASE AND APPLICATIONS THEREOF” (priority 2022, published 2025).
